The source of these data is article PMC3772059.

This data set deals with TTF-IΔN348. As to the kind of experiment: MST. As to conditions: 5 mM MgCl2; Hill coefficient 1; MST: 50 nM DNA, 5 nM-2.4 uM protein, 80 mM Tris-HCl pH 7.6, 80 mM KCl, 0.2 mM EDTA, 5 mM MgCl2, 10% glycerol, 0.05% IGEPAL CA-630, 10 min at 30 C; EMSA and ….

Broadly, the Kd is a measure of binding affinity in units of concentration. A higher Kd goes with lower affinity.

With T2 Sal-box 30-mer oligonucleotide, the Kd amounted to 500 nM.
